Tests used:
[1] = target: RRS1^WRKY, integrated WRKY domain of RRS1-R (residues 1194 to 1273) (Arabidopsis); experiment: ITC; AvrRps4^C (wild type or mutant) titrated into a solution of the WRKY domain; three independent experiments fitted globally to a 1:1 binding model (AFFINImeter)
[2] = target: AtWRKY41 (Thr125 to Ile204), DNA-binding domain (Arabidopsis) (UniProt Q8H0Y8); experiment: as above
[3] = target: RRS1B^WRKY, integrated WRKY domain of RRS1B (Asn1164 to Thr1241) (Arabidopsis) (UniProt Q9FL92); experiment: as above
RRS1B^WRKY, integrated WRKY domain of RRS1B (Asn1164 to Thr1241) (Arabidopsis), sequence (Q9FL92 1164-1241): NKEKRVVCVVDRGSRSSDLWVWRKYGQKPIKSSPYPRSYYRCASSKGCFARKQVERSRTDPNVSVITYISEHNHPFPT

[4] = target: RRS1^WRKY, integrated WRKY domain of RRS1-R (residues 1194 to 1273) (Arabidopsis); experiment: SEC; analytical gel filtration on a Superdex 75 10/300 column; proteins alone and after incubation at an equimolar (1:1) ratio
[5] = target: AvrRps4^C, in planta processed C-terminal fragment of AvrRps4 (residues 134 to 221) (Pseudomonas syringae pv. pisi); experiment: as above
[6] = target: RRS1B^WRKY, integrated WRKY domain of RRS1B (Asn1164-Thr1241) (Arabidopsis) (UniProt Q9FL92); experiment: ITC; MicroCal PEAQ-ITC; cell 20 uM RRS1WRKY, AtWRKY41 or RRS1BWRKY, syringe 200 uM AvrRps4C wild type or mutant; 25 C; buffer A4 (20 mM HEPES pH 7.5, 150 mM NaCl); triplicate, global fit to a 1:1 binding model (AFFINImeter)
RRS1B^WRKY, integrated WRKY domain of RRS1B (Asn1164-Thr1241) (Arabidopsis), sequence (Q9FL92 1164-1241): as above

[7] = target: AtWRKY41 DNA-binding domain (Thr125-Ile204) (Arabidopsis) (UniProt Q8H0Y8); experiment: as above
[8] = target: T1, RRS1 WRKY domain (RRS1-R) (UniProt C4B7M5 1194-1273); experiment: EMSA; no effector; EMSA: 10 mM Tris-Cl pH 7.5, 50 mM KCl, 1 mM DTT, 5% glycerol; SPR: 10 mM HEPES pH 7.5, 250 mM NaCl, 0.005% Tween-20, 25 C (Biacore 8K, ReDCaT); settings: protein: recombinant; tags: 6xHis-MBP (pOPIN-M), cleaved with 3C; label: 5' Cy3 on forward strand; blunt
T1 sequence: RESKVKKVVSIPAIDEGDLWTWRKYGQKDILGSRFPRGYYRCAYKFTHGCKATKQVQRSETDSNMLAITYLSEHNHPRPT

[9] = target: T2, AtWRKY41 DNA-binding domain (UniProt Q8H0Y8 125-204); experiment: as above; settings: protein: recombinant; tags: 6xHis-MBP (pOPIN-M), cleaved with 3C; label: 5' Cy3 on forward strand; blunt
T2 sequence: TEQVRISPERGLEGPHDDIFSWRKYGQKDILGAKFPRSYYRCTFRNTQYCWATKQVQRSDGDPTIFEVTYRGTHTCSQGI

For AvrRps4^C Q194A (domain or fragment), the fold reduction in affinity against wild-type AvrRps4^C [1] was 7 fold.

With “AvrRps4^C, in planta processed C-terminal fragment of AvrRps4 (residues 134 to 221) (domain or fragment)” the Kd [1] was 103 nM, the stoichiometry N [1] was 1 and the Kd [2] was 20 nM. For the same molecule, the fold weaker binding than to RRS1^WRKY [3] was 3 fold, the stoichiometry N [4] was 1 and the stoichiometry N [5] was 2.

For “AvrRps4^C, the in planta processed C-terminal fragment of AvrRps4 (residues 134-221) (domain or fragment)”, the stoichiometry N [6] was 0.8 and the stoichiometry N [7] was 1.1.

B1: Cy3 W-box DNA (dsDNA)
DNA 1: CGCCTTTGACCAGCGC
DNA 2: GCGCTGGTCAAAGGCG
B1: binds [8]; binds [9].

— PMC8685902, “Perception of structurally distinct effectors by the integrated WRKY domain of a plant immune receptor”
